According to the Human Domainome abundance scans (Beltran et al. 2025):
± gives the uncertainty stated by the source.

B1: Dynamin-binding protein, residues 146 to 206; numbered along this chain, Q6XZF7 (parent)
chain: SMGQARALMGLSAQLDEELDFREGDVITIIGVPEPGWFEGELEGRRGIFPEGFVELLGPLR

Variants of: B1
Assay: abundance fitness (aPCA) (normalised: wild type 0, dead -1); higher = more abundant; growth selection in yeast, the domain comes from the species named
Conditions: Homo sapiens
SMGQARALMGLSAQLDEELDFREGDVITIIGVPEPGWFEGELEGRRGIFPEGFVELEGPLR [L57E] showed an abundance fitness of -0.695 ± 0.27.
Variant SMGQARASMGLSAQLDEELDFREGDVITIIGVPEPGWFEGELEGRRGIFPEGFVELLGPLR [L8S] has an abundance fitness of -0.305 ± 0.045.
For SMGQARALMGLSAQLDEELDFREGDVITIIGVPQPGWFEGELEGRRGIFPEGFVELLGPLR [E34Q], the abundance fitness was -0.364 ± 0.21.
Variant SMGQARALMGLSAQLDEELDFREGDVITPIGVPEPGWFEGELEGRRGIFPEGFVELLGPLR [I29P] has an abundance fitness of -0.595 ± 0.21.
In the case of SMGQARALMGLSAQLDEELDFREGDVITIIYVPEPGWFEGELEGRRGIFPEGFVELLGPLR [G31Y], the abundance fitness is reported as -0.975 ± 0.42.
SMGQARALMGLSAQLDEELDIREGDVITIIGVPEPGWFEGELEGRRGIFPEGFVELLGPLR [F21I] gave an abundance fitness of -0.435 ± 0.065.
For SMGQARALMGLSAQLDEELDFREGDEITIIGVPEPGWFEGELEGRRGIFPEGFVELLGPLR [V26E], the abundance fitness was -0.27 ± 0.13.
For SMGQARALMGLSAQLDEELDFREGDVITIIGVPEPQWFEGELEGRRGIFPEGFVELLGPLR [G36Q], the abundance fitness was -0.797 ± 0.22.
Work on SMGQARALMGLSAQLDEELDFREGDVITIIGVPEPGWFEGELEGRRGIFPEYFVELLGPLR [G52Y] yielded an abundance fitness of -0.064 ± 0.3.
SMGQARALMGLSAQLDEELDFREGDVITIIGVPEPGWFEGELEGRRGIFPEGFGELLGPLR [V54G] gave an abundance fitness of -0.708 ± 0.07.
Work on SMGQARALMGLSAQLDEELDFREGFVITIIGVPEPGWFEGELEGRRGIFPEGFVELLGPLR [D25F] yielded an abundance fitness of -0.518 ± 0.075.
For SMGQARALMGLSAQLDEELDFREGDVITIIGVIEPGWFEGELEGRRGIFPEGFVELLGPLR [P33I], the abundance fitness was -0.494 ± 0.15.
Variant SMGQARALMGLSAQLDEELDFREGDVITIIGVSEPGWFEGELEGRRGIFPEGFVELLGPLR [P33S] has an abundance fitness of -0.65 ± 0.1.
In the case of SMGQARALMGLSAQLDEELDFREGDVITIIGCPEPGWFEGELEGRRGIFPEGFVELLGPLR [V32C], the abundance fitness is reported as -0.12 ± 0.06.
For SMGQARALMGLSAQLDEELDFREGDVITIIGVPEPGWFEGELEGRRGIFPEGFVELLGPLY [R61Y], the abundance fitness was -0.148 ± 0.098.
With SMGQARALMGLSAQLDEELDFREGDVITIIGVPEPGWFEGELEGRRGIFNEGFVELLGPLR [P50N] the abundance fitness was -0.371 ± 0.069.
MMGQARALMGLSAQLDEELDFREGDVITIIGVPEPGWFEGELEGRRGIFPEGFVELLGPLR [S1M] showed an abundance fitness of 0.073 ± 0.3.
SMGQARALMGLSAQLDEELDFREGDVITIIGVPEPGWFEGELEGRRGRFPEGFVELLGPLR [I48R] showed an abundance fitness of 0.012 ± 0.11.
Variant SMGQKRALMGLSAQLDEELDFREGDVITIIGVPEPGWFEGELEGRRGIFPEGFVELLGPLR [A5K] has an abundance fitness of -0.696 ± 0.39.
With SMGQARALMGLSAQLDEELDFWEGDVITIIGVPEPGWFEGELEGRRGIFPEGFVELLGPLR [R22W] the abundance fitness was -0.542 ± 0.11.
With SMGQARALMGLSAQLDEELDFREGDVITIIGVPEPGWFEGELEGRRGIFPEIFVELLGPLR [G52I] the abundance fitness was 0.04 ± 0.16.
Variant SMGQARALMGLSAQLDEELDFREGDVSTIIGVPEPGWFEGELEGRRGIFPEGFVELLGPLR [I27S] has an abundance fitness of -0.753 ± 0.054.
In the case of SMGQARALMGLSAQLDEELDFREGDVITQIGVPEPGWFEGELEGRRGIFPEGFVELLGPLR [I29Q], the abundance fitness is reported as -0.082 ± 0.25.
Work on SMGQARALMGLSAQLDEELDFIEGDVITIIGVPEPGWFEGELEGRRGIFPEGFVELLGPLR [R22I] yielded an abundance fitness of -0.191 ± 0.064.
Work on SMGQARALMGLSAQLDEELDFREGDVITIIGVPEPGWFEGELEVRRGIFPEGFVELLGPLR [G44V] yielded an abundance fitness of -0.884 ± 0.2.
SMGQARALMGLSAQLDEELDFREGDVETIIGVPEPGWFEGELEGRRGIFPEGFVELLGPLR [I27E] showed an abundance fitness of -0.773 ± 0.15.
Variant SMGQARALMGLSAQLDEELDFREGDWITIIGVPEPGWFEGELEGRRGIFPEGFVELLGPLR [V26W] has an abundance fitness of -0.554 ± 0.1.
Work on SMGQARALMGLSAQLDEELDFREGDVITIIGVPEPGWFEGSLEGRRGIFPEGFVELLGPLR [E41S] yielded an abundance fitness of -0.806 ± 0.25.
In the case of SMGQARALMGLSAQLDEELDFREGDVITIIGVPEPGWFEGELEGRRDIFPEGFVELLGPLR [G47D], the abundance fitness is reported as -0.804 ± 0.27.
In the case of SMGQARALMGLSAQSDEELDFREGDVITIIGVPEPGWFEGELEGRRGIFPEGFVELLGPLR [L15S], the abundance fitness is reported as 0.283 ± 0.059.
SMGQARALMGLSAQLDEELDFREGDVDTIIGVPEPGWFEGELEGRRGIFPEGFVELLGPLR [I27D] gave an abundance fitness of -0.694 ± 0.066.
With SMGQARALMGLSAQLDEELDFREGDPITIIGVPEPGWFEGELEGRRGIFPEGFVELLGPLR [V26P] the abundance fitness was -0.64 ± 0.12.
For SMGQARALMGLSAQLFEELDFREGDVITIIGVPEPGWFEGELEGRRGIFPEGFVELLGPLR [D16F], the abundance fitness was -0.763 ± 0.14.
Work on SMGQARALMGLSAQLDEELDFREGDVITIIGVPEPGWFEGELEGRRGVFPEGFVELLGPLR [I48V] yielded an abundance fitness of -0.007 ± 0.041.
SMGQARALMGLSAQLDEELDFREGDVITIIGVPEPGWFEGELEGRRGIFSEGFVELLGPLR [P50S] showed an abundance fitness of -0.674 ± 0.068.
Work on SMGQARALMGLSTQLDEELDFREGDVITIIGVPEPGWFEGELEGRRGIFPEGFVELLGPLR [A13T] yielded an abundance fitness of 0.353 ± 0.23.
Variant SMGQARALMGLSAQLDEELDFREGDVITIIGVPEPGWFEGELEGRRQIFPEGFVELLGPLR [G47Q] has an abundance fitness of -0.861 ± 0.18.
In the case of SMGQARALMQLSAQLDEELDFREGDVITIIGVPEPGWFEGELEGRRGIFPEGFVELLGPLR [G10Q], the abundance fitness is reported as -0.016 ± 0.12.
With SMGQARALMGLSAQLDEELDFREGDVISIIGVPEPGWFEGELEGRRGIFPEGFVELLGPLR [T28S] the abundance fitness was 0.011 ± 0.054.
For SMGQARALMGLSAQLDEELDFREGDMITIIGVPEPGWFEGELEGRRGIFPEGFVELLGPLR [V26M], the abundance fitness was -0.154 ± 0.1.
For SMGQARALMGLSAQLDEELDFREGDVITIIKVPEPGWFEGELEGRRGIFPEGFVELLGPLR [G31K], the abundance fitness was -0.085 ± 0.24.
SMGQARALMGLSAQLDEELDFREGDVITIIGVPEPGWFEEELEGRRGIFPEGFVELLGPLR [G40E] showed an abundance fitness of -0.685 ± 0.15.
For SMGQARALMGLSAQLDEELDFREGDVITIIGVPEPGWFEGELEGRRGIFPEGFVELTGPLR [L57T], the abundance fitness was -0.437 ± 0.055.
SMGQPRALMGLSAQLDEELDFREGDVITIIGVPEPGWFEGELEGRRGIFPEGFVELLGPLR [A5P] showed an abundance fitness of -0.686 ± 0.11.
